Laboratory results taken from patent US20240018255A1 (QURE BIOTECHNOLOGY SHANGHAI, published 2024).
Changes are numbered by the printed parent chain. Blank lines part the entries; values can stand above or below the binder they belong to.

Key:
[1] = molecular target: T1, human SIRPα naturally expressed on human renal clear cell adenocarcinoma 786-O cells (human, UniProt P78324 31-504); experiment: FACS on 786-O cells, PE-anti human FC secondary, MFI; unit from the axis Log[Abs,nM]
T1 construct: whole, on cells
T1 sequence (P78324 31-504): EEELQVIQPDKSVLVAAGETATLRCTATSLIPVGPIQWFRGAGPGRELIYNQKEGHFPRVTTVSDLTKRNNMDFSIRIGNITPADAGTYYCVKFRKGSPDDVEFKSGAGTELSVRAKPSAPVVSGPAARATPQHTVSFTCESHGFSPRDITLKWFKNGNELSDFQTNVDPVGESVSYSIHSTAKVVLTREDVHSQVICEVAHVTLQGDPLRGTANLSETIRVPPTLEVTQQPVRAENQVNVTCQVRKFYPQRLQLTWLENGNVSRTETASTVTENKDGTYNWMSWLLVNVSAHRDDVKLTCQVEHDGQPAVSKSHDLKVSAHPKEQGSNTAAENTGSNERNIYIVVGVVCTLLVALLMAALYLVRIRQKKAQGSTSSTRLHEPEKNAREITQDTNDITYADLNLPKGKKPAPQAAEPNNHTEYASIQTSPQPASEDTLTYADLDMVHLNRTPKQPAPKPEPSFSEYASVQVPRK
Method: Blocking: the cells were resuspended with 2% FBS and were seeded into 96-well U bottom plate with 2E5/well, 200 μl/well, then subjected to ice bath for 1 h. Centrifugation was performed at 300 g for 3 min, and the supernatant was discarded. Antibody incubation: 10 μg/ml antibodies for incubation were diluted at 1:3, 100 μl/well, and subjected to ice bath for 1 h. Centrifugation was performed, and the supernatant was discarded. Pre-cooled PBS was added at 200 μl/well, centrifuged at 300 g for 5 min to discard supernatant, which was repeated twice. Secondary antibody: PE-anti human FC (1:200) 50 μl/well was subjected to ice bath for 0.5h. Centrifugation was performed and the supernatant was discarded. Pre-cooled PBS was added at 200 μl/well, centrifuged at 300 g for 5 min to discard supernatant, which was repeated 3 times. The mean fluorescence values were read on FACS.

[2] = molecular target: T2, SIRPα V1 fusion Fc (mouse IgG2a) (human; mouse); experiment: ELISA, plate coated with SIRPα V1-Fc (mouse IgG2a), anti-hFab secondary, OD450
T2 construct: No linker mentioned between SIRPα and Fc
T2 chain: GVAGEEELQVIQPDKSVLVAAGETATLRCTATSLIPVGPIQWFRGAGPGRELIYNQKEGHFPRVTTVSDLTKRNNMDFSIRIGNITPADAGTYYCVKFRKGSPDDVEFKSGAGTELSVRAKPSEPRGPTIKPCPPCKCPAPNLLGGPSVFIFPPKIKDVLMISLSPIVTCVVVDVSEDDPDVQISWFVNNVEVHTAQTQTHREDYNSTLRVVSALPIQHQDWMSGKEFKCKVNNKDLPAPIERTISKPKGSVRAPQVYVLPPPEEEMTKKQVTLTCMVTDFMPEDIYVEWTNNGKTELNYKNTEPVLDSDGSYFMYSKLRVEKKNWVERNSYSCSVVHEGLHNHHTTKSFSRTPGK
Method: (§1) The plate was coated with SIRPα V1/V2/V3/V4/V5/V6/V7/V8/V9/V10 at 1 μg/ml, 60 μl/well overnight at 4° C., and washed twice with PBST; blocked with 5% non-fat milk (Sangon) of 200 μl/well, incubated at room temperature for 1 h, and washed twice with PBST. Antibody was incubated at 10 μg/ml, diluted with 5 times for 10 gradients, 60 μl/well, incubated at room temperature for 1 h, and washed with PBST 5 times. Secondary antibody incubation: anti-hFab 1:10000, 60 μl/well, incubated at room temperature for 1 h, washed with PBST 5 times. Developing: TMB was equilibrated at room temperature for 1 h in advance, 100 μl/well, to develop for 10 min, 2M H₂SO₄ of 50 ul/well was used for termination, and reading was performed at 450 nm on microplate reader.

[3] = molecular target: T3, SIRPα V2 fusion Fc (mouse IgG2a) (human; mouse); experiment: ELISA, plate coated with SIRPα V2-Fc (mouse IgG2a), anti-hFab secondary, OD450
T3 construct: No linker mentioned between SIRPα and Fc
Method: as §1

[4] = molecular target: T4, SIRPα V4 fusion Fc (mouse IgG2a) (human; mouse); experiment: ELISA, plate coated with SIRPα V4-Fc (mouse IgG2a), anti-hFab secondary, OD450
T4 construct: No linker mentioned between SIRPα and Fc
T4 chain: T2 chain with E7G, L18S, T24S, T26I, R28H
Method: as §1

[5] = molecular target: SIRPα V7 fusion Fc (mouse IgG2a) (human; mouse); experiment: ELISA, plate coated with SIRPα V7-Fc (mouse IgG2a), anti-hFab secondary, OD450
Method: as §1

[6] = molecular target: SIRPα V10 fusion Fc (mouse IgG2a) (human; mouse); experiment: ELISA, plate coated with SIRPα V10-Fc (mouse IgG2a), anti-hFab secondary, OD450
Method: as §1

[7] = molecular target: T5, SIRPα V6 fusion Fc (mouse IgG2a) (human; mouse); experiment: ELISA, plate coated with SIRPα V6-Fc (mouse IgG2a), anti-hFab secondary, OD450
T5 construct: No linker mentioned between SIRPα and Fc
T5 chain: T2 chain with S79P
Method: as §1

[8] = molecular target: SIRPα V8 fusion Fc (mouse IgG2a) (human; mouse); experiment: ELISA, plate coated with SIRPα V8-Fc (mouse IgG2a), anti-hFab secondary, OD450
Method: as §1

[9] = molecular target: T6, SIRPα V9 fusion Fc (mouse IgG2a) (human; mouse); experiment: ELISA, plate coated with SIRPα V9-Fc (mouse IgG2a), anti-hFab secondary, OD450
T6 construct: No linker mentioned between SIRPα and Fc
T6 chain: T2 chain with G83S
Method: as §1

EC50 [1]: 0.204 nM
B1: QP256253 (humanized anti-SIRPα antibody, QP163164 humanized clone) (antibody, human IgG4, V domains shown)
VH: QVQLVQSGAEVKKPGASVKVSCKASGYTFTNYWINWVRQAPGQGLEWIAMIDPSDSETHYNQIFKDRATLTTDTSTSTAYMELRSLRSDDTAVYYCAMDYGSLYAMDYWGRGTLVTVSS
VL: DIVLTQSPDSLAVSLGERATINCRASKSVSSSGYNYIFWYQQKPGQPPKLLIYLASNLDSGVPDRFSGSGSGTDFTLTISSLQAEDVAVYYCQHSRELPTFGQGTKLEIK

EC50 (read off the curve) [2]: ~0.08 nM
EC50 (read off the curve) [3]: ~0.07 nM
EC50 (read off the curve) [4]: ~0.06 nM
EC50 (read off the curve) [5]: ~0.07 nM
EC50 (read off the curve) [6]: ~0.07 nM
B2: QP256279 (affinity-matured humanized anti-SIRPα antibody) (antibody, IgG4, V domains shown)
VH: B1 VH
VL: B1 VL with K27Q, S30R, Y36W, L58R
notes: full-length IgG with hIgG4 constant region and kappa CL; also called CHO71 (QP256279 stably expressed in CHOS cells)

EC50 [1]: 0.217 nM
B3: QP2561586 (affinity-matured humanized anti-SIRPα antibody) (antibody, IgG4, V domains shown)
VH: B1 VH
VL: B1 VL with H94E
notes: hIgG4 constant region, kappa CL

EC50 [1]: 0.188 nM
B4: QP2561589 (affinity-matured humanized anti-SIRPα antibody) (antibody, IgG4, V domains shown)
VH: B1 VH
VL: B1 VL with H94E, R96W
notes: as for B3

EC50 (read off the curve) [2]: ~0.2 nM
EC50 (read off the curve) [7]: ~0.1 nM
EC50 (read off the curve) [5]: ~0.1 nM
EC50 (read off the curve) [8]: ~0.2 nM
EC50 (read off the curve) [9]: ~0.2 nM
EC50 [1]: 0.245 nM
B5: QP026249 (control antibody, variable regions of KWAR23, human IgG4/kappa) (antibody)
light: QIVLTQSPAIMSASPGEKVTLTCSASSSVSSSYLYWYQQKPGSSPKLWIYSTSNLASGVPARFSGSGSGTSYSLTISSMEAEDAASYFCHQWSSYPRTFGAGTKLELKRTVAAPSVFIFPPSDEQLKSGTASVVCLLNNFYPREAKVQWKVDNALQSGNSQESVTEQDSKDSTYSLSSTLTLSKADYEKHKVYACEVTHQGLSSPVTKSFNRGEC
heavy: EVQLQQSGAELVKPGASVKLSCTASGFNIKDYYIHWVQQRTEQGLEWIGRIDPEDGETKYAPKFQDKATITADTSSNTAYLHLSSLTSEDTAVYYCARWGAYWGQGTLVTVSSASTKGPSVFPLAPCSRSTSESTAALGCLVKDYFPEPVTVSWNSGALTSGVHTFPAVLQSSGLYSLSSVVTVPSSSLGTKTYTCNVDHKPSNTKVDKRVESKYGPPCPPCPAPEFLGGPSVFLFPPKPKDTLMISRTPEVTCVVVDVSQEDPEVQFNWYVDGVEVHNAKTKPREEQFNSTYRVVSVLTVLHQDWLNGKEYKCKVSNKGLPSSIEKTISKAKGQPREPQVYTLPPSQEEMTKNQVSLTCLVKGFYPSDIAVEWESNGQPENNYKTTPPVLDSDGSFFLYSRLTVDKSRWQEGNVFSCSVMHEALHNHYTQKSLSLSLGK
notes: also called KWAR23 (QP026249)
